Patent US20130089536

Molecular target: Aβ1-40 peptide (UniProt P05067)

hGCP II (wild type human glutamate carboxypeptidase II expressed from cDNA in cells)
Aβ1-40 cleavage in primary rat astrocytes (Aβ1-40 in growth medium by ELISA): 2-PMPA did not block A1-40 cleavage of lentiviral GCP II
